Assay results from US20100260668A1 (published 2010).

B1: DVD491 (bispecific antibody, human IgG1, kappa)
heavy: not shown
light: DIQMTQSSSYLSVSLGGRVTITCKASDHINNWLAWYQQKPGNAPRLLISGATSLETGVPSRFSGSGSGKDYTLSITSLQTEDVATYYCQQYWSIPLTFGAGTKLELKRTVAAPDIQMTQSPSSLSASVGDRVTITCRASQVIRRSLAWYQQKPGKAPKLLIYAASNLASGVPSRFSGSGSGTDFTLTISSLQPEDFATYYCQQSNTSPLTFGQGTKVEIKRTVAAPSVFIFPPSDEQLKSGTASVVCLLNNFYPREAKVQWKVDNALQSGNSQESVTEQDSKDSTYSLSSTLTLSKADYEKHKVYACEVTHQGLSSPVTKSFNRGEC
notes: DVD-Ig; N-term; AB072 (DLL4), C-term; AB071 (VEGF); HC linker short, LC linker short; also called DVD491H; DVD491L
B2: DVD503 (bispecific antibody, human IgG1, kappa)
heavy: not shown
light: B1 light
notes: DVD-Ig; N-term; AB072 (DLL4), C-term; AB071 (VEGF); HC linker long, LC linker short; also called DVD503H; DVD503L
B3: DVD497 (bispecific antibody, human IgG1, kappa)
heavy: not shown
light: DIQMTQSSSYLSVSLGGRVTITCKASDHINNWLAWYQQKPGNAPRLLISGATSLETGVPSRFSGSGSGKDYTLSITSLQTEDVATYYCQQYWSIPLTFGAGTKLELKRTVAAPSVFIFPPDIQMTQSPSSLSASVGDRVTITCRASQVIRRSLAWYQQKPGKAPKLLIYAASNLASGVPSRFSGSGSGTDFTLTISSLQPEDFATYYCQQSNTSPLTFGQGTKVEIKRTVAAPSVFIFPPSDEQLKSGTASVVCLLNNFYPREAKVQWKVDNALQSGNSQESVTEQDSKDSTYSLSSTLTLSKADYEKHKVYACEVTHQGLSSPVTKSFNRGEC
notes: DVD-Ig; N-term; AB072 (DLL4), C-term; AB071 (VEGF); HC linker long, LC linker long; also called DVD497H; DVD497L
B4: DVD509 (bispecific antibody, human IgG1, kappa)
heavy: not shown
light: B3 light
notes: DVD-Ig; N-term; AB072 (DLL4), C-term; AB071 (VEGF); HC linker short, LC linker long; also called DVD509H; DVD509L
B5: DVD043 (bispecific antibody, human IgG1, kappa)
heavy: not shown
light: DIQMTQSPSSLSASVGDRVTITCSASQDISNYLNWYQQKPGKAPKVLIYFTSSLHSGVPSRFSGSGSGTDFTLTISSLQPEDFATYYCQQYSTVPWTFGQGTKVEIKRTVAAPDIQMTQSPSSLSASVGDRVTITCRASQDVSTAVAWYQQKPGKAPKLLIYSASFLYSGVPSRFSGSGSGTDFTLTISSLQPEDFATTYYCQQSYTGTVTFGQGTKVEIKRTVAAPSVFIFPPSDEQLKSGTASVVCLLNNFYPREAKVQWKVDNALQSGNSQESVTEQDSKDSTYSLSSTLTLSKADYEKHKVYACEVTHQGLSSPVTKSFNRGEC
notes: DVD-Ig; N-term; VD VEGF (AB014), C-term; VD DLL4 (AB015); HC linker short, LC linker short; also called DVD-Ig DVD043; DVD043H
B6: DVD476 (bispecific antibody, human IgG1, kappa)
heavy: not shown
light: B5 light
notes: DVD-Ig; N-term; VD VEGF (AB014), C-term; VD DLL4 (AB015); HC linker long, LC linker short; also called DVD-Ig DVD476; DVD476H
B7: DVD512 (bispecific antibody, human IgG1, lambda, L234A L235A)
heavy: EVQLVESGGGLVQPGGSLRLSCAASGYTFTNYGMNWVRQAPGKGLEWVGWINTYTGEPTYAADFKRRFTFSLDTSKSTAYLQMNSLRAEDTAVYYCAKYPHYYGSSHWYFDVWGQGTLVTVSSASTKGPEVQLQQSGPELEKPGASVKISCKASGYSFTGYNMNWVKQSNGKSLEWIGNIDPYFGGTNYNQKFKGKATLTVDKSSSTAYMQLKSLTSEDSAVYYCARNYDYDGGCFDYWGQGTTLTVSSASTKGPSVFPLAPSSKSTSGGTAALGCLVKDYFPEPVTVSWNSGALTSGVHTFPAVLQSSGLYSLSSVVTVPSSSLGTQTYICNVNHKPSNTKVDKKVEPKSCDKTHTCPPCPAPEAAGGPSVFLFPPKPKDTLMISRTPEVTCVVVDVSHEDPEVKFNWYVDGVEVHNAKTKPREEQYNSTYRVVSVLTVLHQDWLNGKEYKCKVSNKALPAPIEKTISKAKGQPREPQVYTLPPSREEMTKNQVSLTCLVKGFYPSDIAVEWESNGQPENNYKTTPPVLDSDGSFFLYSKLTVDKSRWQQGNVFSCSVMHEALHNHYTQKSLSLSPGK
light: DIQMTQSPSSLSASVGDRVTITCSASQDISNYLNWYQQKPGKAPKVLIYFTSSLHSGVPSRFSGSGSGTDFTLTISSLQPEDFATYYCQQYSTVPWTFGQGTKVEIKRTVAAPQAVVTQESALTTSPGETVTLTCRSSTGAVTTSNYANWVQEKPDHLFTGLIGGTNNRAPGVPARFSGSLIGDKAALTITGAQTEDEAIYFCALWYSNHWVFGGGTKLTVLGQPKAAPSVTLFPPSSEELQANKATLVCLISDFYPGAVTVAWKADSSPVKAGVETTTPSKQSNNKYAASSYLSLTPEQWKSHRSYSCQVTHEGSTVEKTVAPTECS
notes: DVD-Ig; N-term; VD VEGF (AB014), C-term; VD DLL4 (AB073); HC linker short, LC linker short; also called DVD-Ig DVD512; DVD512H
B8: DVD524 (bispecific antibody, human IgG1, lambda)
heavy: not shown
light: B7 light
notes: DVD-Ig; N-term; VD VEGF (AB014), C-term; VD DLL4 (AB073); HC linker long, LC linker short; also called DVD-Ig DVD524; DVD524H
B9: DVD494 (bispecific antibody, human IgG1, kappa)
heavy: not shown
light: DIQMTQSPSSLSASVGDRVTITCSASQDISNYLNWYQQKPGKAPKVLIYFTSSLHSGVPSRFSGSGSGTDFTLTISSLQPEDFATYYCQQYSTVPWTFGQGTKVEIKRTVAAPSVFIFPPDIQMTQSSSYLSVSLGGRVTITCKASDHINNWLAWYQQKPGNAPRLLISGATSLETGVPSRFSGSGSGKDYTLSITSLQTEDVATYYCQQYWSIPLTFGAGTKLELKRTVAAPSVFIFPPSDEQLKSGTASVVCLLNNFYPREAKVQWKVDNALQSGNSQESVTEQDSKDSTYSLSSTLTLSKADYEKHKVYACEVTHQGLSSPVTKSFNRGEC
notes: DVD-Ig; N-term; VD VEGF (AB014), C-term; VD DLL4 (AB072); HC linker long, LC linker long; also called DVD-Ig DVD494; DVD494H
B10: DVD506 (bispecific antibody, human IgG1, kappa)
heavy: not shown
light: B9 light
notes: DVD-Ig; N-term; VD VEGF (AB014), C-term; VD DLL4 (AB072); HC linker short, LC linker long; also called DVD-Ig DVD506; DVD506H
B11: DVD518 (bispecific antibody, human IgG1, kappa, lambda)
heavy: not shown
light: DIQMTQSPSSLSASVGDRVTITCSASQDISNYLNWYQQKPGKAPKVLIYFTSSLHSGVPSRFSGSGSGTDFTLTISSLQPEDFATYYCQQYSTVPWTFGQGTKVEIKRTVAAPSVFIFPPQAVVTQESALTTSPGETVTLTCRSSTGAVTTSNYANWVQEKPDHLFTGLIGGTNNRAPGVPARFSGSLIGDKAALTITGAQTEDEAIYFCALWYSNHWVFGGGTKLTVLGQPKAAPSVTLFPPSSEELQANKATLVCLISDFYPGAVTVAWKADSSPVKAGVETTTPSKQSNNKYAASSYLSLTPEQWKSHRSYSCQVTHEGSTVEKTVAPTECS
notes: DVD-Ig; N-term; VD VEGF (AB014), C-term; VD DLL4 (AB073); HC linker long, LC linker long; also called DVD-Ig DVD518; DVD518H
B12: DVD530 (bispecific antibody, human IgG1, kappa, lambda, L234A L235A)
heavy: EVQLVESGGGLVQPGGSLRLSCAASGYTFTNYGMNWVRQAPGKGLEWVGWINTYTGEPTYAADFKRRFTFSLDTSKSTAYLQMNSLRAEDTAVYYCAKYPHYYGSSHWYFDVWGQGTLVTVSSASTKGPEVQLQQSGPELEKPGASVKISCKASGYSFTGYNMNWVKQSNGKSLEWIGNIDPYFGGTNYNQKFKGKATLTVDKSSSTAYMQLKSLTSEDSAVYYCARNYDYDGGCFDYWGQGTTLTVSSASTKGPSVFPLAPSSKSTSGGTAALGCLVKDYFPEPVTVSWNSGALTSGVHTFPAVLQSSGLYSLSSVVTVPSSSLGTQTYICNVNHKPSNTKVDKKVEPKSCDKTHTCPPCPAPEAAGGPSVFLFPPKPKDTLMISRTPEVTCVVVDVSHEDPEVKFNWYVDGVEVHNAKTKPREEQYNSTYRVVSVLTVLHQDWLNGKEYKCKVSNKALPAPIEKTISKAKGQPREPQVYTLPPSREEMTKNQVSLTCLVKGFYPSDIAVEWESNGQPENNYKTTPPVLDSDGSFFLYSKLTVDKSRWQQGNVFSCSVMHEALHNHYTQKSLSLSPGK
light: B11 light
notes: DVD-Ig; N-term; VD VEGF (AB014), C-term; VD DLL4 (AB073); HC linker short, LC linker long; also called DVD-Ig DVD530; DVD530H
B13: DVD468 (bispecific antibody, human IgG1, kappa)
heavy: not shown
light: DIQMTQSPSSLSASVGDRVTITCRASQVIRRSLAWYQQKPGKAPKLLIYAASNLASGVPSRFSGSGSGTDFTLTISSLQPEDFATYYCQQSNTSPLTFGQGTKVEIKRTVAAPDIQMTQSPSSLSASVGDRVTITCRASQDVSTAVAWYQQKPGKAPKLLIYSASFLYSGVPSRFSGSGSGTDFTLTISSLQPEDFATTYYCQQSYTGTVTFGQGTKVEIKRTVAAPSVFIFPPSDEQLKSGTASVVCLLNNFYPREAKVQWKVDNALQSGNSQESVTEQDSKDSTYSLSSTLTLSKADYEKHKVYACEVTHQGLSSPVTKSFNRGEC
notes: DVD-Ig; N-term; AB071 (VEGF), C-term; AB015 (DLL4); HC linker short, LC linker short; also called DVD468H; DVD468L
B14: DVD488 (bispecific antibody, human IgG1, kappa)
heavy: not shown
light: DIQMTQSPSSLSASVGDRVTITCSASQDISNYLNWYQQKPGKAPKVLIYFTSSLHSGVPSRFSGSGSGTDFTLTISSLQPEDFATYYCQQYSTVPWTFGQGTKVEIKRTVAAPDIQMTQSSSYLSVSLGGRVTITCKASDHINNWLAWYQQKPGNAPRLLISGATSLETGVPSRFSGSGSGKDYTLSITSLQTEDVATYYCQQYWSIPLTFGAGTKLELKRTVAAPSVFIFPPSDEQLKSGTASVVCLLNNFYPREAKVQWKVDNALQSGNSQESVTEQDSKDSTYSLSSTLTLSKADYEKHKVYACEVTHQGLSSPVTKSFNRGEC
notes: DVD-Ig; N-term; VD VEGF (AB014), C-term; VD DLL4 (AB072); HC linker short, LC linker short; also called DVD-Ig DVD488; DVD488H
B15: DVD470 (bispecific antibody, human IgG1, kappa)
heavy: not shown
light: DIQMTQSPSSLSASVGDRVTITCSASQDISNYLNWYQQKPGKAPKVLIYFTSSLHSGVPSRFSGSGSGTDFTLTISSLQPEDFATYYCQQYSTVPWTFGQGTKVEIKRTVAAPSVFIFPPDIQMTQSPSSLSASVGDRVTITCRASQDVSTAVAWYQQKPGKAPKLLIYSASFLYSGVPSRFSGSGSGTDFTLTISSLQPEDFATTYYCQQSYTGTVTFGQGTKVEIKRTVAAPSVFIFPPSDEQLKSGTASVVCLLNNFYPREAKVQWKVDNALQSGNSQESVTEQDSKDSTYSLSSTLTLSKADYEKHKVYACEVTHQGLSSPVTKSFNRGEC
notes: DVD-Ig; N-term; VD VEGF (AB014), C-term; VD DLL4 (AB015); HC linker long, LC linker long; also called DVD-Ig DVD470; DVD470H
B16: DVD482 (bispecific antibody, human IgG1, kappa)
heavy: not shown
light: B15 light
notes: DVD-Ig; N-term; VD VEGF (AB014), C-term; VD DLL4 (AB015); HC linker short, LC linker long; also called DVD-Ig DVD482; DVD482H

Experiments:
VEGF = target: T1, VEGF (UniProt P15692-4 27-191); experiment: BIACORE SPR
T1 construct: Bought reagent; also called vascular endothelial growth factor

[1] = target: T2, DLL4 (DLL ECD His tag, R&D 1506-D4-050) (UniProt Q9NR61 27-529); experiment: BIACORE (SPR), DVD-Ig against DLL4
T2 construct: extracellular domain; bought

T1 sequence (P15692 other isoform, or with tags, fused parts or gaps limits assumed): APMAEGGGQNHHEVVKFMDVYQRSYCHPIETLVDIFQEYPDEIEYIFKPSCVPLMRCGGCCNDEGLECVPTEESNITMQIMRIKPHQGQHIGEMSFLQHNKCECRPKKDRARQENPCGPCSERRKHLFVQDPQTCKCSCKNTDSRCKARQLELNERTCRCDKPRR

Binder	Kd (VEGF) [nM]	koff (VEGF) [s⁻¹]	kon (VEGF) [M⁻¹ s⁻¹]	Kd [1] [nM]	koff [1] [s⁻¹]	kon [1] [M⁻¹ s⁻¹]
B1	0.72	0.000245	340000	–	–	–
B2	0.466	0.000105	226000	–	–	–
B3	0.668	8.37e-05	125000	–	–	–
B4	0.0613	7.83e-06	128000	–	–	–
B5	–	–	–	8.4	0.000281	33400
B6	–	–	–	2.96	0.000167	56300
B7	–	–	–	2.94	0.000757	258000
B8	–	–	–	9.45	0.000877	92800
B9	–	–	–	1.39	0.000183	132000
B10	–	–	–	1.47	0.000104	70700
B11	–	–	–	3.72	0.000454	122000
B12	–	–	–	5.38	0.00219	407000
B13	0.00148	1.74e-07	118000	–	–	–
B14	–	–	–	0.418	6.62e-05	159000
B15	–	–	–	1.03	7.02e-05	68400
B16	–	–	–	2.08	0.000232	111000
